How the values were obtained:
Test in all cases: cross-linking + ELISA
[1] = target: TcpP-HSV (wild-type, from pEK41) (V. cholerae) (UniProt P29485)
TcpP-N99D (V. cholerae) = TcpP-N99D (V. cholerae) (UniProt P29485)
TcpP-K102E (V. cholerae) = TcpP-K102E (V. cholerae) (UniProt P29485)

Row | Substance | percent reduction in TcpP interaction relative to wild-type ToxR [1] [%] | further results
1 | ToxR-T91A (chromosomally expressed) (from UniProt P15795 1-294) (natural protein) | 45 | 
2 | ToxR (wild-type, expressed from the chromosomal toxR locus) (from UniProt P15795 1-294) (natural protein) |  | percent reduction in ToxR interaction relative to wild-type TcpP-HSV (TcpP-N99D (V. cholerae)): 50%; percent reduction in ToxR interaction relative to wild-type TcpP-HSV (TcpP-K102E (V. cholerae)): 50%
3 | ToxR-Y96A (chromosomally expressed) (from UniProt P15795 1-294) (natural protein) | 40 | 
4 | ToxR-V97A (chromosomally expressed) (from UniProt P15795 1-294) (natural protein) |  | percent defect in TcpP interaction relative to wild-type ToxR [1]: > 60%
5 | ToxR-L107A (chromosomally expressed) (from UniProt P15795 1-294) (natural protein) | 70 | 

From paper PMC6733452
